Assay [1] deals with PD-L1 expressing CHO cells (Promega, CS187103) (human, UniProt Q9NZQ7 19-290). Put plainly: cell-based or functional assay.
The target in assay [2] is monkey PD-L1 Fc fusion (Sino Biological, China, cat. no. 90251-C02H) (Rhesus macacque (Macaca mulatta)) (UniProt F6PJN1). Put plainly: ratio of KinExA KD values (human PD-L1 Fc fusion as reference). A general note: A kinetic exclusion assay measures how much of one partner remains free in solution.
The target of assay [3] is T1, rhB7-H3 Fc fusion (RnD Systems, USA, cat. no. 1027-B3) (human, UniProt Q5ZPR3-2 29-245, limits assumed).
T1 construct: Bought reagent; also called human B7-H3; not shown: Fc part of the bought fusion
T1 sequence (looked up): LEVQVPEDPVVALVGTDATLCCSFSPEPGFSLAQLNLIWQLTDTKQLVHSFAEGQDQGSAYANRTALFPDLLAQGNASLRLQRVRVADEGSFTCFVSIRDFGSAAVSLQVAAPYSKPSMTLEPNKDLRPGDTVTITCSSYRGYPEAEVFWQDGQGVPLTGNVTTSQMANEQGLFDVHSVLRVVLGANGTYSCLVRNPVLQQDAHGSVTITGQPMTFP
Put plainly: binding ELISA, rhB7-H3 Fc fusion coated, Protein L-HRP detection. How it is done: (§1) Plates were blocked with 1% BSA and 0.5% Tween-20 in PBS, pH7.2. A serial dilution of scFvs was prepared with concentrations of 5, 1 and 0.2 mcg/mL and added to plates.
A general note: In an ELISA, binding on a coated surface is turned into a signal by an enzyme label.

Assay [4] addresses T2, rhPD-L2 Fc fusion (RnD Systems, USA, cat. no. 1224-PL) (human, UniProt Q9BQ51 20-219).
T2 construct: Bought reagent; also called human PD-L2; not shown: Fc part of the bought fusion
T2 sequence (looked up): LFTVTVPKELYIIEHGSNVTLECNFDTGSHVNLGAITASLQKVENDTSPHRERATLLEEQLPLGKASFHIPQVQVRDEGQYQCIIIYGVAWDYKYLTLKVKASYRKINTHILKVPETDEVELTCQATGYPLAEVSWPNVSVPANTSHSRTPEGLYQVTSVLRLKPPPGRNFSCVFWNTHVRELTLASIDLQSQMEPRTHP
Nature of the assay: binding ELISA, rhPD-L2 Fc fusion coated, Protein L-HRP detection. On the procedure: as §1

In assay [5] the target is T3, natural form of PD-L1 expressed on the surface of ES-2 cells (human, UniProt Q9NZQ7 19-290).
T3 construct: whole, on cells; also called cell surface PD-L1; human natural form of PD-L1
T3 sequence (Q9NZQ7 19-290): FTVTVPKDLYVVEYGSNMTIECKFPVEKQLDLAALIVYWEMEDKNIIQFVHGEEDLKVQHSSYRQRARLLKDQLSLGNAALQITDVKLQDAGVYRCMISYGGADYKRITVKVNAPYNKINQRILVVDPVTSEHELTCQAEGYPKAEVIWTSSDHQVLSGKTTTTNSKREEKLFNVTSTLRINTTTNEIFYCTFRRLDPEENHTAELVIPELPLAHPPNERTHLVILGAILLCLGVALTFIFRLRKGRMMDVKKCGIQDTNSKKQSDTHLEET
Nature of the assay: KinExA, ES-2 cells titrated against 50 pM scFv1, room temperature. On the procedure: (§2) Duplicate measurements were prepared for each data point. […] These mixtures were incubated for 5 hours. […] These mixtures were incubated for 9 hours. […] All steps were carried out at room temperature. […] This voltage signal is used to calculate the KD value and activity of the scFv using the “n-curve analysis” of the KinExA® Pro software version 4.1.9 or 4.2.10 (FIG. 5) using the option “titrant as analysis concentration reference”.
These mixtures were incubated for 5 hours, centrifuged for 10 minutes at 3800×g, and supernatants were transferred to fresh tubes. […] All steps were carried out at room temperature.

Assay [6] addresses T4, mouse PD-L1 Fc fusion (Sino Biological, China, cat. no. 50010-M03H or RnD Systems, USA, cat. no. 1019-B7-100) (Mus musculus, UniProt Q9EP73 19-238).
T4 construct: Two bought reagents were used; not shown: Fc part of the bought fusion
Put plainly: binding ELISA, mouse PD-L1 Fc fusion coated, Protein L-HRP detection.

The target in assay [7] is T5, rat PD-L1 Fc fusion (Sino Biological, China, cat. no. 80450-R02H) (Rattus norvegicus (Norway rat), UniProt D4AE25 19-239).
T5 construct: Bought reagent; not shown: Fc part (and any linker) of the bought Sino Biological 80450-R02H fusion
T5 sequence (D4AE25 entry or part of it R02H R02H limits assumed): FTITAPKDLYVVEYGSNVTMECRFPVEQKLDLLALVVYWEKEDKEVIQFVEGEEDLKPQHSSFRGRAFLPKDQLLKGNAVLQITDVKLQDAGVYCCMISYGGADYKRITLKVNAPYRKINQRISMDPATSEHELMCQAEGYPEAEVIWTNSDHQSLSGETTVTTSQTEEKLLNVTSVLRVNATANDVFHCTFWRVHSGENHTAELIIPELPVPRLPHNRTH
Nature of the assay: binding ELISA: coated rat PD-L1 Fc fusion, detected with Protein L-HRP. On the procedure: Plates were blocked with 1% BSA and 0.5% Tween-20 in PBS, pH7.2. A serial dilution of scFvs was prepared with concentrations of 1 mcg/mL, 333 ng/mL and 111 ng/mL and added to plates. […] Development was with TMB ELISA substrate solution (eBioscience, USA, cat. no. 00-4201-56).

Assay [8] concerns the target T6, recombinant human (rh) PD-L1 Fc fusion (RnD Systems, USA, cat. no. 156-B7) (human, UniProt Q9NZQ7 19-239).
T6 construct: Bought reagent; also called human PD-L1 Fc fusion; not shown: Fc part of the bought fusion
Nature of the assay: KinExA in solution, room temperature, PD-L1 Fc fusion titrated against constant scFv1, n-curve analysis. On the procedure: as §2

The target of assay [9] is monkey PD-L1 Fc fusion (Sino Biological, China, cat. no. 90251-C02H) (Rhesus macacque (Macaca mulatta)) (UniProt F6PJN1). Nature of the assay: KinExA in solution, room temperature, monkey PD-L1 Fc fusion titrated against constant scFv1, n-curve analysis.
Assay [10] deals with T6, recombinant human (rh) PD-L1 Fc fusion …. Put plainly: binding ELISA: coated rhPD-L1 Fc fusion, scFv1 in PBS without incubation, detected with Protein L-HRP. How it is done: (§3) After blocking with PBS, pH7.4 with, 1% BSA and 0.05% Tween-20, a series of 1:3 dilutions of 2.5 mcg/ml to 42 ng/mL serum/scFv samples was added to the ELISA plates in duplicate. […] The ELISA was developed with TMB ELISA substrate solution (eBioscience, USA, cat. no. 00-4201-56).

Assay [11] has the same target. Put plainly: binding ELISA: coated rhPD-L1 Fc fusion, scFv1 in human serum, 0 h at 37 C, detected with Protein L-HRP. On the procedure:
as §3

The target is the same in assay [12]. Nature of the assay: binding ELISA: coated rhPD-L1 Fc fusion, scFv1 in human serum, 4 h at 37 C, detected with Protein L-HRP. How it is done: as §3
Assay [13] shares this target. Put plainly: binding ELISA: coated rhPD-L1 Fc fusion, scFv1 in human serum, 20 h at 37 C, detected with Protein L-HRP. How it is done: as §3
Assay [14] has the same target. Put plainly: competition ELISA: coated rhPD-L1 Fc fusion, scFv titrated, bound biotinylated PD-1 Fc fusion (15 ng/mL) detected with streptavidin-HRP. On the procedure:
Plates were blocked with 1% BSA and 0.05% Tween-20 in PBS, pH7.2. A serial dilution of scFvs was prepared, with eleven 1:3 dilutions starting at 1 mcg/mL, and added to plates. […] Background level was determined in the absence of PD-1. The ELISA was developed with TMB ELISA substrate solution (eBioscience, USA, cat. no. 00-4201-56).

For assay [15] the target is unchanged. Nature of the assay: competition ELISA: coated rhCD80-His, scFv titrated against constant 50 nM rhPD-L1 Fc fusion, bound PD-L1 Fc detected with anti-human IgG Fc-HRP. On the procedure:
Plates were blocked with 1% BSA and 0.05% Tween-20 in PBS, pH7.4. […] This mixture was incubated with the CD80 coated plates for 2 hours at room temperature. […] The ELISA was developed with TMB ELISA substrate solution (eBioscience, USA, cat. no. 00-4201-56).

Assay [16] shares this target. Put plainly: competition ELISA, rhPD-L1 Fc fusion coated, displacement of biotinylated PD-1 Fc fusion. On the procedure: Plates were blocked with 1% BSA and 0.05% Tween-20 in PBS, pH7.4. A serial dilution of IgGs was prepared, with eleven 1:3 dilutions starting at 1 mcg/mL, and added to plates. […] The ELISA was developed with TMB ELISA substrate solution (eBioscience, USA, cat. no. 00-4201-56).

For assay [17], the target named is T7, human PD-L1-His (BioVision, USA, cat. no. 7429) (human, UniProt Q9NZQ7 19-238, limits assumed).
T7 construct: Bought reagent without Fc tag, chosen to avoid avidity; also called His tagged PD-L1; not shown: His tag
T7 sequence (Q9NZQ7 19-238 limits assumed): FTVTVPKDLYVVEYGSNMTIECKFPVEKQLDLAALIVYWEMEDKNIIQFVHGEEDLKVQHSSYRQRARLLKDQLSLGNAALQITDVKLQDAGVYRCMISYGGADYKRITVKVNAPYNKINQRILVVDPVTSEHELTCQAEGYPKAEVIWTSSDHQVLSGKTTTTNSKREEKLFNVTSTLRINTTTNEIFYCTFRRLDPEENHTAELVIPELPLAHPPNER
Nature of the assay: ratio of KinExA KD values (scFv1 on PD-L1 Fc fusion as reference).

Assay [18] addresses T7, human PD-L1-His (BioVision, USA, cat. …). Put plainly: KinExA in solution, human PD-L1-His titrated against constant IgG, n-curve analysis. How it is done: All steps were carried out at room temperature. […] This voltage signal is used to calculate the KD value and activity of the scFv using the “n-curve analysis” of the KinExA® Pro software version 4.1.9 or 4.2.10 (FIG. 5) using the option “titrant as analysis concentration reference”.
These mixtures were incubated for 5 hours.

“And” between values parts separate entries of the source, which are not always exact repeats. Identical values can stand only once.

Sequence of PD-L1 expressing CHO cells (Promega, CS187103) (Q9NZQ7 19-290): as the sequence (Q9NZQ7 19-290) above
T6 sequence (Q9NZQ7 19-239 limits assumed): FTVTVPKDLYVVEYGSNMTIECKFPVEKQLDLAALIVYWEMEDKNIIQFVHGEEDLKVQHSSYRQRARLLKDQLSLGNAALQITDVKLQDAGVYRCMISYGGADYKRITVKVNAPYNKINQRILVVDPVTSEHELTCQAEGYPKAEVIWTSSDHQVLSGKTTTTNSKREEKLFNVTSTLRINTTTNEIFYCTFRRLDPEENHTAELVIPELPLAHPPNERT
T4 sequence (Q9EP73 19-238 limits assumed, stated change not applied): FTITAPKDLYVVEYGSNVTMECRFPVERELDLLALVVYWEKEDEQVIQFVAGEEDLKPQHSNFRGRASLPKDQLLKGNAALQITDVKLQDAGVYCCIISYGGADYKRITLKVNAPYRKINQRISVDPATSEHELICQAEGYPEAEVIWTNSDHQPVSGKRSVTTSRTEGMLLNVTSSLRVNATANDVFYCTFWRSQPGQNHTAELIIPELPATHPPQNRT

B1: scFv1 (scFv)
scFv: EIVMTQSPSTLSASVGDRVIITCQASEDIYSLLAWYQQKPGKAPKLLIYDASDLASGVPSRFSGSGSGAEFTLTISSLQPDDFATYYCQGNYGSSSSSSYGAVFGQGTKLTVLGGGGGSGGGGSGGGGSGGGGSEVQLVESGGGLVQPGGSLRLSCTVSGIDLSSYTMGWVRQAPGKGLEWVGIISSGGRTYYASWAKGRFTISRDTSKNTVYLQMNSLRAEDTAVYYCARGRYTGYPYYFALWGQGTLVTVSS
notes: also called E. coli cell expressed scFv1
For B1, the “IC50, PD-1/PD-L1 blockade assay (luciferase, PD-L1 CHO cells and PD-1 Jurkat cells)” value in assay [1] is 0.75 nM and 0.874 nM. Further, the fold tighter affinity than to human PD-L1 in assay [2] turned out to be 2.7 fold. Moreover, the binding result in assay [3] is listed as “no binding (tested: 5 mcg/mL)”; in assay [4] it was “no binding (tested: 5 mcg/mL)”; in assay [6], “no binding (tested: 5 mcg/mL)”; in assay [7], “no binding”. Moreover, the values for the Kd in assay [5], in assay [8] and in assay [9] were 0.0128 nM, 0.0088 nM and 0.0033 nM, respectively. Further, the “EC50 (read off the curve)” value in assay [10], in assay [11], in [12] and in assay [13] was about 7 ng/mL throughout. Further, the “IC50 (read off the curve)” value is about 1 nM in [14] and 10 to 20 nM in assay [15].

B2: CHO cell expressed scFv1 (scFv)
scFv: EIVMTQSPSTLSASVGDRVIITCQASEDIYSLLAWYQQKPGKAPKLLIYDASDLASGVPSRFSGSGSGAEFTLTISSLQPDDFATYYCQGNYGSSSSSSYGAVFGQGTKLTVLGGGGGSGGGGSGGGGSGGGGSEVQLVESGGGLVQPGGSLRLSCTVSGIDLSSYTMGWVRQAPGKGLEWVGIISSGGRTYYASWAKGRFTISRDTSKNTVYLQMNSLRAEDTAVYYCARGRYTGYPYYFALWGQGTLVTVSS
B2: the “IC50, PD-1/PD-L1 blockade assay (luciferase, PD-L1 CHO cells and PD-1 Jurkat cells)” value in assay [1] is 0.602 nM.

B3: IgG_4 (antibody, V domains shown)
VH: EVQLVESGGGVVRPGGSLRLSCAASGFTFDDYGMTWVRQAPGRGLEWVSGIHWHGKRTGYADSVKGRFTISRDNAKKSLYLQMNSLKGEDTALYHCVRGGMSTGDWFDPWGQGTLVIVSS
VL: DIQMTQSPSSLSASLGDRVTITCRASQSINSYLNWYQQKPGKAPKLLIYVASSLQSGVPSRFSGSGSGTEFTLTISNLQPEDFATYYCQQSYSTPPITFGQGTRLEIKR
notes: Produced in CHO K1 cells; also called H2M8314N as described in WO2015/112805A1
Take B3: the IC50 – broadly, the point on the concentration scale where inhibition reaches its midpoint – in assay [16] amounted to 0.606 nM.

B4: IgG_1 (antibody, V domains shown)
VH: EVQLVESGGGLVQPGGSLRLSCTVSGIDLSSYTMGWVRQAPGKGLEWVGIISSGGRTYYASWAKGRFTISRDTSKNTVYLQMNSLRAEDTAVYYCARGRYTGYPYYFALWGQGTLVTVSS
VL: EIVMTQSPSTLSASVGDRVIITCQASEDIYSLLAWYQQKPGKAPKLLIYDASDLASGVPSRFSGSGSGAEFTLTISSLQPDDFATYYCQGNYGSSSSSSYGAVFGQGTKLEIKR
notes: Produced in CHO K1 cells; also called scFv1 converted into IgG format
Take B4: the “fold tighter affinity than scFv1 to PD-L1” value in [17] was about 3 fold. In addition, the Kd (usually the free concentration of one partner at which half of the binding sites on the other are occupied at equilibrium, for simple one-to-one binding) in assay [18] came out at 0.00277 nM. Also, the IC50 in assay [16] is 0.327 nM.

The values are drawn from patent publication US20190055312A1 (CELL MEDICA, published 2019).
